Experimental data from the nanobody polyreactivity screen of Harvey et al. (2022).

experiment: yeast display, Sf9 membrane polyspecificity reagent, FACS + sequencing; frameworks hold sequencing errors
Outline: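 Synthetic nanobody libraries on Saccharomyces cerevisiae BJ5465 were galactose-induced for 36–48 hours, stained 1 hour at 4 °C with 10% biotinylated, detergent-solubilized Sf9 membrane reagent and enriched on streptavidin microbeads. FACS then separated cells into low and high (top ~1%) gates by anti-HA (expression) and streptavidin (reagent binding) fluorescence. Genes were colony-PCR amplified, MiSeq 2 × 250 sequenced and CDR-length filtered. A clone's polyreactivity label is that of its gate of origin.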

Row | Sequence | polyreactivity (PSR sort gate)
1 | QVQLVESGGGLVQSGGSLRLSCAASGRISYYYAMGWYRQAPGKERELVARISKSGGSTYYADSVKGRFTISRDNAKNTVYLQMNSLKPVVTAVYFCAARWKTGYNYWGEGTQVTVSS | high polyreactivity
2 | QVQLVESGGGLVQSGGSLRLSCAASGRTFRYYAMGWYRQAPGKERELVAAISWNGANTYYADSVKGRFTISRDNAKNTVYLQMNSLKPEDTAVYYCAATYYRWKGYDYWGQGTQVNVSS | high polyreactivity
3 | QVQLVESGGGLVQSGGSLRLSCAASGRTIGAYAMGWYRQAPGKEREFVAAITFGGGPTYYADSVKGRFTISRDNAKNTVYLQMNSLKPEDTAVYYCAKRIDLSFPFARYDYWGQGTQVTVSS | low polyreactivity
4 | QVQLVESGGGLVQSGGSLRLSCAASGSTFTSNTMGCYRQAPGKESEIVAGITWRGGSTYYADSVKGRFTISRDNAKNTVYLQMNSLKPEDTAVYYCAAYGYSKDVWNFYYWGQGTQVTVSS | low polyreactivity
5 | QVQLVESGGGLVQSGGSLRLSCAASGSTVDDNAMGWSRQAPGQVMELVAAIDTSGGSTYADSVKGRFTISRYNAKNTVYLQMNSQKPEDTAVYYCAKPFSSNSWSHGYWGQGTQVTVSS | low polyreactivity
6 | QVQLVESGGGLVQSGGSLRLSCVASGRTFRWYPMGWYRQEPGKERELVATITLNGGSTYYADSVKGRFTISRDNEKNTVYLQMNSLKPEDTAVYYCNRGTNVVRRGVYSFGYDYWGHGTQVTVSS | low polyreactivity
7 | QVQLVESGGGLVQSGGSLRLTCAASGFTFYDYDMGWYRQAPGKERELVATITWSVGRTYYADSVKGRFTISRDTAKNTVYLQMNSLKPEDTAVYYCAADEPDRDYGYWGQGTQVTVSS | low polyreactivity
8 | QVQLVESGGGLVQSGGSLRLTCAASGSIIRYYTMGWYRQAPGKERELVATITQSGGSTYYADSVKGRFTISRDNAKNTVYLQINSLKPEDTAVYYCAALVRRGFRLYGSWGQGTQVTVSS | high polyreactivity
9 | QVQLVESGGGLVQSGGTLRLSCAASGFTFYWYAMGWYRQAPGKEREMVAAITRGGRTYYEDSVKGRFTITRDNAKNTVYLQMNSLKPEDNAVYYCYAYVSWYRTVRTKYDYWGQGTQVTVSS | high polyreactivity
10 | QVQLVESGGGLVQSGGTLRLSCAASGSTFYVNAMGWYRLAPGKERELVAAINYSGGNTYYADSVKGRFTFSRDNAKNTVYLQMNTLKQEDTAVYYCAVDLIIKGYPWWIEDDYWGQGTQVTVSS | high polyreactivity
11 | QVQLVESGGGLVQTGGSLRLSCAASGLTLYVYAMGWYRQAPGKERELVASITSGGSTNYADSVKGRFTISRDNAKNTVYLQMNSLKPEDTAVYYCAAETDTVYDWIAPYVTYDYWGQGTQVTVSS | low polyreactivity
12 | QVQLVESGGGLVQTGGSLRLSCAASGRTFGYNAMGWYRQAPGKERELVASISYSGGSTYYADSVKGRFTISRDNAKNTVYLQMNSLKPEDTAVYYCAAKYWYWQSPSKYYYWGQGTQVTVSS | high polyreactivity
13 | QVQLVESGGGLVQTGGSLRLSCAASGSTYYYYAMGWSRPAPGKERELVAGISWGGGSTYFADSVKGRFTISRDNAMNSVYLQMNSLKPEDTAVYYCNALNPKSYDYWGQGTQVTVSS | low polyreactivity
14 | QVQLVESGGGLVQVGGSLRLSCAASGITLSYYAMGWYRQAPGKERELVASITVSRTSTYYADSVKGRFTISRDNAKNSVYLQMNSLKPEDTAVYYCAAYAYQYRFSGYGYWGQGTQVTVSS | low polyreactivity
15 | QVQLVESGGGLVQVGGSLRLSCDASGITLSYYAMGWYRQAPGKVRELVASITVSRTSTYYADSVKRRFTISRDNAKNTVYLQMNSLKPEDTAVYYCAAYAFQYRFSGYGYWGQGTQVTVSS | low polyreactivity
16 | QVQLVESGGGLVRAGGSLRISCAASGSIFDVNDMGWYRQAPGKERELVASISWNGGSPYYADSVKRRFTISRDNAKNTVYLQLNILNPEDTAVYYCNRSYRRPTSDLYDYWGQGTQVTVSS | low polyreactivity
17 | QVQLVESGGGRVHAGGSHRISCAASGSIFGRYAMGGYRQAPRQDREVVAAISSRGGSTYYADTVKGRFTISRDNAKNTVYLQMTSLKPEDTAFYYCAKENWCTSYYARYDDWGQGTQVTVSS | high polyreactivity
